How the values were obtained:
[1] = target: the molecule itself; assay: CD thermal unfolding, global two-state fit of the monomer to dimer transition, 1 M standard state
Description: Circular Dichroism (CD) Analysis. CD spectra were recorded on an Aviv 62DS spectropolarimeter (Lakewood, N.J.) in PBS buffer, pH 7.4. All peptide concentrations were determined by amino acid analysis of a stock solution (5 mg/ml). Experiments were performed in a rectangular cell with pathlength of 1 cm for low concentration samples and pathlength of 1 mm for high concentration samples. Spectra were scanned from 250 nm to 200 nm with data taken every 1 nm. The temperature of the solution was maintained by a thermostatically controlled cuvette holder (HP model 89101A). Temperature scans were performed from 0° C. to 100° C. in 1° C. steps. Three scans were performed on a single sample and averaged. Each data point was collected after 30 seconds of thermal equilibration at the desired temperature. Urea titration scans were performed manually starting with the 8 M concentrated sample followed by serial dilution to the desired urea concentration. At each concentration, the sample was allowed to equilibrate for 5 min before recording the CD signal.

[2] = target: the molecule itself; assay: CD thermal unfolding, global two-state fit of the monomer to dimer transition; difference against A1-WT at 37 °C

B1: A1-WT (designed binder)
chain: MRGSHHHHHHGSMASGDLENEYAQLEREVRSLEDEAAELEQKVSRLKNEIEDLAEIGDLNNTSGIRRPAAKLN
notes: Expressed in E. coli from pQE-A1 with an N-terminal His-tag; Forms dimeric coiled coils; entered as the single chain; also called wild-type A1
ΔG° (37° C.) [1]: -10.7 kcal/mol

B2: FA1-92 (designed binder)
chain: MRGSHHHHHHGSMASGDLENEYAQLEREVRSLEDEAAELEQKVSRLKNEIEDLAEIGDLNNTSGIRRPAAKLN
modifications: leucines (eight per chain) replaced by 5,5,5-trifluoroleucine to 92% by amino acid analysis; mixed population of (2S,4S) and (2S,4R) diastereomers
notes: Expressed in an E. coli leucine auxotroph in medium with trifluoroleucine; The sample is heterogeneous; its main MALDI peak of 8736 corresponds to 8 substitutions; also called 92% fluorinated A1
ΔG° (37° C.) [1]: -13.1 kcal/mol
ΔΔG° [2]: -2.4 kcal/mol

Reference: patent US20140127777A1 (CALIFORNIA INSTITUTE OF TECHNOLOGY, published 2014)
